T1: Myc-Ube2G2 (Mus musculus, UniProt P60605)
T1 construct: expressed in transfected cells; host or cells: HEK 293T
T1 sequence (P60605 1-165): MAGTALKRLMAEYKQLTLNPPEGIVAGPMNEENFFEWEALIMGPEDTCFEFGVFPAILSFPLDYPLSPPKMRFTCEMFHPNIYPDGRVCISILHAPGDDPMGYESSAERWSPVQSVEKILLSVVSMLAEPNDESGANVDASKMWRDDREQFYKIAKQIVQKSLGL

B1: gp78E2-m2: full-length gp78 with residues 579-584 mutated (label E2-m2 in b279) (protein)
chain: MPLLFLERFPWPSLRTYTGLSGLALLGTIISAYRALSQPEAGPGEPDQLTASLQPEPPAPARPSAGGPRARDVAQYLLSDSLFVWVLVNTACCVLMLVAKLIQCIVFGPLRVSERQHLKDKFWNFIFYKFIFIFGVLNVQTVEEVVMWCLWFAGLVFLHLMVQLCKDRFEYLSFSPTTPMSSHGRVLSLLVAMLLSCCGLAAVCSITGYTHGMHTLAFMAAESLLVTVRTAHVILRYVIHLWDLNHEGTWEGKGTYVYYTDFVMELTLLSLDLMHHIHMLLFGNIWLSMASLVIFMQLRYLFHEVQRRIRRHKNYLRVVGNMEARFAVATPEELAVNNDDCAICWDSMQAARKLPCGHLFHNSCLRSWLEQDTSCPTCRMSLNIADNNRVREEHQGENLDENLVPVAAAEGRPRLNQHNHFFHFDGSRIASWLPSFSVEVMHTTNILGITQASNSQLNAMAHQIQEMFPQVPYHLVLQDLQLTRSVEITTDNILEGRIQVPFPTQRSDSIRPALNSPVERPSSDQEEGETSAQTERVPLDLSPRLEETLDFGEVEVEPSEVEDFEARGSRFSKSADERAAAGGGRKDELLQQARKRFLNKSSEDDAASESFLPLEGASSDPVTLRRRMLAAAAERRLQKQQTS
B2: AO7: GST fusion of the RING finger and surrounding regions of the unrelated E3 enzyme AO7 (protein)
chain: QIHKISQALGHVAKEGLGTAMLYELIEKGKEILTDNNIPHGQCVICLYGFQEKEAFTKTPCYHYFHCHCLARYIQHMEQELTTQEQEQERQHVVTKQKAVGVQCPVCREPLVYDLASLKAAPEPQQPMELYQPSAESLRQQEELKLLYQRQQEKGGIIDLEAERNRYF
modifications: left off: a dimerising Fc or GST
B3: gp78Cue-m1, 2: full-length gp78 with mutations in the Cue domain (label Cue-m1, 2 in b279) (protein)
chain: MPLLFLERFPWPSLRTYTGLSGLALLGTIISAYRALSQPEAGPGEPDQLTASLQPEPPAPARPSAGGPRARDVAQYLLSDSLFVWVLVNTACCVLMLVAKLIQCIVFGPLRVSERQHLKDKFWNFIFYKFIFIFGVLNVQTVEEVVMWCLWFAGLVFLHLMVQLCKDRFEYLSFSPTTPMSSHGRVLSLLVAMLLSCCGLAAVCSITGYTHGMHTLAFMAAESLLVTVRTAHVILRYVIHLWDLNHEGTWEGKGTYVYYTDFVMELTLLSLDLMHHIHMLLFGNIWLSMASLVIFMQLRYLFHEVQRRIRRHKNYLRVVGNMEARFAVATPEELAVNNDDCAICWDSMQAARKLPCGHLFHNSCLRSWLEQDTSCPTCRMSLNIADNNRVREEHQGENLDENLVPVAAAEGRPRLNQHNHFFHFDGSRIASWLPSFSVEVMHTTNILGITQASNSQLNAMAHQIQEGGRQVPYHLRLQVDQLTRSVEITTDNILEGRIQVPFPTQRSDSIRPALNSPVERPSSDQEEGETSAQTERVPLDLSPRLEETLDFGEVEVEPSEVEDFEARGSRFSKSADERQRMLVQRKDELLQQARKRFLNKSSEDDAASESFLPLEGASSDPVTLRRRMLAAAAERRLQKQQTS

Legend:
gp78 [1] = experiment: gp78 level in transfected cells by immunoblotting; format: cell-based; conditions: full-length gp78 forms; immunoblot
Description: (§1) Transfections of HT1080, NIH 3T3 and HEK 293T cells were carried out ˜24 hr after plating using Polyfect (Qiagen, Valencia, Calif.) and cells harvested after ˜48 hr. J558 cells were transfected by electroporation using Bio-rad GENE pulser II at settings of 250 v, 950uF. Vector without insert was used to equalize total plasmid. In most experiments 0.15 μg of pEGFP-C1 served as an internal control. For experiments not involving immunoprecipitation, 6×10^5 cells were plated in 6 well plates and cell lysis was with Mammalian Protein Extraction Reagent (Pierce). For immunoprecipitation, 2.4×10^6 cells were seeded in 100 mm dishes and cells were lysed in RIPA buffer (1×PBS, 1% Nonidet P40. 0.5% sodium deoxycholate, 0.1% SDS). Lysis buffers were supplemented with Protease Inhibitor Cocktail (Sigma) and 10 mM iodoacetamide. Supernatants were analyzed after a 10,000×g centrifugation using standard techniques for immunoprecipitation, SDS-PAGE, immunoblotting and ECL. Treatment of cells with MG132 (Sigma) was at 50 μM for eight hr. Cycloheximnide was used at 50 μg/ml. […]
(§2) gp78 is degraded in a proteasome-dependent manner, and deletion of the entire cytoplasmic domain results in its stabilization. […] To determine the significance of the RING finger, Cue domain and Ube2G2 binding site on gp78 stability, mutations of each were evaluated within full-length gp78. […]

Myc-Ube2G2 = target: T1, Myc-Ube2G2; experiment: Co-immunoprecipitation with co-expressed Myc-Ube2G2 in cells; format: cell-based; conditions: anti-Myc IP, anti-gp78 IB; MG132 8 hr
Description: (§3) Transfections of HT1080, NIH 3T3 and HEK 293T cells were carried out ˜24 hr after plating using Polyfect (Qiagen, Valencia, Calif.) and cells harvested after ˜48 hr. J558 cells were transfected by electroporation using Bio-rad GENE pulser II at settings of 250 v, 950uF. Vector without insert was used to equalize total plasmid. In most experiments 0.15 μg of pEGFP-C1 served as an internal control. For experiments not involving immunoprecipitation, 6×10^5 cells were plated in 6 well plates and cell lysis was with Mammalian Protein Extraction Reagent (Pierce). For immunoprecipitation, 2.4×10^6 cells were seeded in 100 mm dishes and cells were lysed in RIPA buffer (1×PBS, 1% Nonidet P40. 0.5% sodium deoxycholate, 0.1% SDS). Lysis buffers were supplemented with Protease Inhibitor Cocktail (Sigma) and 10 mM iodoacetamide. Supernatants were analyzed after a 10,000×g centrifugation using standard techniques for immunoprecipitation, SDS-PAGE, immunoblotting and ECL. Treatment of cells with MG132 (Sigma) was at 50 μM for eight hr. Cycloheximnide was used at 50 μg/ml. All cells were collected at the end of the six hr chase.
FIG. 5 depicts the results of immunoprecipitation of Ube2G2 (MmUbc7) from HEK 293T cells co-transfected with a plasmid encoding myc-tagged MmUbc7/Ube2G2 together with s plasmid encoding various forms of gp78. HEK 293T cells were transfected with a plasmid encoding myc-tagged MmUbc7/Ube2G2 together with plasmids encoding various forms of gp78. After 48 hours, cells were harvested and co-immuntoprecipitated with an anti-Myc tage. Anti-gp78 was used for detection. “R2M” indicates a mutation of two crucial residues in the RING finger. “T” indicates C terminal truncations at the indicated amino acids. ΔB is the mutation indicated above in FIG. 4 in the context of the full length gp78 and “Cue12M” indicates mutations in the Cue domain of gp78.
To confirm the significance of the Ube2G2 binding site in cells, a variety of mutations and truncations of full-length gp78 were tested for binding of co-expressed Myc-Ube2G2 (FIG. 19A). Cells were treated with the proteasome inhibitor MG132 in an attempt to equalize levels of the various forms of gp78.

ERAD substrate CD3-δ = experiment: CD3-δ level in co-transfected cells by immunoblotting; format: cell-based; conditions: co-transfection with CD3-δ; immunoblot
Description: as §3
FIG. 7 depicts the stabilization of CD3-δ protein in cells transfected with the G2BD, but not with the G2BD with amino acids 579-584 (of SEQ ID NO:2) mutated. HEK 293T cells were transfected with the ERAD substrate CD3-δ along with the indicated GFP fusions of gp78. The left and right sides are two separate experiments.
To test this, GFP fusions of either a minimal E2 binding domain (GFP-574-611) or a more extended region that includes the C-terminus of gp78 (GFP-574-643) were evaluated (FIG. 21A). […] To assess this further, the C-terminal region of gp78 was fused to the eight amino acid Flag tag. […] Mdm2 is a RING finger E3 for both itself and p53 that is neither an ERAD substrate nor known to utilize Ube2G2 as an E2. […] To establish with certainty that the effect observed with expression of the Ube2G2 binding site is a consequence of binding endogenous E2, and not due to other unanticipated effects, cells were co-transfected with increasing amounts of Ube2G2 (FIG. 21C, lanes 3 and 4). […] These findings clearly establish that the isolated E2 binding site has the potential to markedly alter ERAD of CD3-δ. To ensure the effect observed was not peculiar to one substrate, TCR-α was evaluated (FIG. 21D).

gp78 [2] = experiment: gp78 ubiquitylation in transfected cells (IP anti-gp78, IB anti-ubiquitin); format: cell-based; conditions: 50 μM MG132 eight hours
Description: FIGS. 20A-20E depict the requirement of multiple domains of gp78 to target itself and a heterologous ERAD substrate. (FIG. 20A) Cells were co-transfected with the indicated forms of full length gp78 together with CD3-δ and lysates analyzed by IB. (B) Cells were transfected with wild type and mutant gp78 plasmids as indicated. Samples were treated with 50 μM MG132 for eight hours, lysates IP'ed with anti-gp78 followed by […] with either antiubiquitin (upper) or anti-gp78 (lower). Arrow in upper panel indicates migration of unmodified gp78. (FIGS. 20C and 20D) Cells were co-transfected with HA-CD3-δ and wild type (WT) or mutant forms of gp78. Cells were treated with cycloheximide (CHX) as indicated. (FIG. 20E) Graphic representation of CD3-δ levels from FIGS. 20C and 20D (fall length gp78 transfections only), Cue-m1, 2 is the average of data shown in FIGS. 20C and 20D.
as §1, with “Lysis buffers were supplemented with Protease Inhibitor Cocktail (Sigma) and 10 mM iodoacetamide.” left out, “ECL.” for “ECL. Treatment of cells with MG132 (Sigma) was at 50 μM for eight hr. Cycloheximnide was used at 50 μg/ml.”
as §2

UbcH5B = target: T2, UbcH5B (Homo sapiens, UniProt P62837); experiment: GST pull-down binding of in vitro translated UbcH5B; conditions: GST fusion pull-down
T2 construct: made in house; host or cells: in vitro translation in wheat germ
T2 sequence (P62837 whole entry, the tested form may be a part): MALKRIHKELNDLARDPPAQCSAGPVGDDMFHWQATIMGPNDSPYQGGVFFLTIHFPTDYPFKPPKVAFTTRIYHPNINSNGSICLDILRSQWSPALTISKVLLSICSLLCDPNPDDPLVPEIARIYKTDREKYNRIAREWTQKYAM
Description: GST fusions were purified from E. Coli. Binding was carried out using equi-molar amount of fusion proteins measured by Commassie blue staining. Generally, 20 picomoles/sample were used. In vitro translated E2 was generated by coupled transcription and translation using 35S methionine in either wheat germ or rabbit reticulocyte lysate. Binding assays using in vitro translated E2 was carried out by incubating GST protein pre-bound to Glutathione-sepharose 4B with […] of ^35S-methionine labeled E2 in binding buffer (25 mM Tris-HCl, pH 7.4; 50 mM NaCl, 5 mM DTT; and 0.5% NP-40) overnight at 4° C. Beads were washed with binding buffer and resolved by SDS-PAGE under reducing conditions. Analysis was by Storm PhosphoImager (Applied Biosystems, Foster City, Calif.). Direct binding assays used wild type His6-MmUbc7 (His6-Ube2G2) and Glutathione-sepharose bound GST fusions. Beadbound GST protein was incubated with 100 ng purified His6-MmUbc7 in binding buffer and washed and eluted as above. After transfer to Hybond-P (Amersham Biosciences) binding was assessed with anti-His6 followed by Enhanced Chemiluminescence ECL; Pierce). Ubiquitin binding studies were performed with binding and washing as above using 1 μg K48 tetra-ubiquitin produced as described (Piotrowski et al., 1997). Detection was by anti-ubiquitin immunoblotting. […]

Row | Molecule | gp78 level compared to wild type (gp78 [1]) | E2 association of full-length gp78 forms with co-expressed Myc-Ube2G2 (Myc-Ube2G2) | effect on CD3-δ level (stabilization) (ERAD substrate CD3-δ) | gp78 ubiquitylation (ubiquitin immunoreactivity) (gp78 [2]) | binding to in vitro translated UbcH5B (UbcH5B)
1 | B1 | increased gp78 | loss of E2 binding | neither significantly stabilized CD3-δ nor enhanced its loss | dramatic decrease in ubiquitin immunoreactivity | 
2 | B2 |  |  |  |  | did bind
3 | B3 | increased gp78 |  | marked increase in CD3-δ | dramatic decrease in ubiquitin immunoreactivity | 
